For the data set the following is noted: Geobacillus stearothermophilus, pH 7.5, 25 °C, Fluorescence, TEA 50 mM, reversible: yes, whole UniProt chain shown.

B1: Phosphoglycerate kinase wild type, P18912 (protein)
chain: MNKKTIRDVDVRGKRVFCRVDFNVPMEQGAITDDTRIRAALPTIRYLIEHGAKVILASHLGRPKGKVVEELRLDAVAKRLGELLERPVAKTNEAVGDEVKAAVDRLNEGDVLLLENVRFYPGEEKNDPELAKAFAELADLYVNDAFGAAHRAHASTEGIAHYLPAVAGFLMEKELEVLGKALSNPDRPFTAIIGGAKVKDKIGVIDNLLEKVDNLIIGGGLAYTFVKALGHDVGKSLLEEDKIELAKSFMEKAKEKGVRFYMPVDVVVADRFANDANTKVVPIDAIPADWSALDIGPKTRELYRDVIRESKLVVWNGPMGVFEMDAFAHGTKAIAEALAEALDTYSVIGGGDSAAAVEKFGLADKMDHISTGGGASLEFMEGKQLPGVVALEDK
B1: the unfolding free energy is, setting by setting: (GdnHCl) 4.35 kcal/mol; (Urea) 4.21 kcal/mol.

For the origin of these results see FireProtDB (doi:10.1021/bi00066a003).
